Reference: patent publication US20230063965A1 (YEDA RESEARCH AND DEVELOPMENT, published 2023)
Each block holds one binder with its values, some of them ahead of it.

Legend:
[1] = biological target: T1, human FcγRIIIA soluble ectodomain (ELISA) (human, UniProt P08637 17-208); assay: FcγR binding ELISA, plate-bound human FcγRIIIA soluble ectodomain, serially diluted IgG, Δabsorbance 450 nm; panel FcgR3A
T1 construct: extracellular domain
Procedure: (§1) ELISA plates (Nunc) were coated overnight at 4° C. with recombinant PD-L1 (1 μg/mL/well). All sequential steps were performed at room temperature in 2% BSA. After being washed, the plates were blocked for 1 hr with 1×PBS with 2% Bovine serum Albumin and were subsequently incubated for 1 hr with serially diluted IgGs. After washing, plates were incubated for 1 hr with HRP-conjugated anti-mouse IgG (Jackson ImmunoResearch). Detection was performed by TMB Soluble Reagent (ScyTek Laboratories) and reactions stopped with the addition of 0.18 M sulfuric acid. Absorbance at 450 nm was immediately recorded using a SpectraMax Plus spectrophotometer (Molecular Devices) and background absorbance from negative control samples was subtracted. […] After washing, plates were incubated for 1 hr with streptavidin-HRP (Jackson ImmunoResearch). (2) For FcγR binding ELISA, human FcγRs soluble ectodomains (2 μg/ml/well) were immobilized to the plate. After being washed, the plates were blocked for 40 minutes with 1×PBS with 10% Bovine serum Albumin and were subsequently incubated for 2 hours with serially diluted IgGs.

[2] = biological target: T2, hFcγRII^F158 (so in the source); read as hFcγRIIIA F158) (human, UniProt P08637 17-208); assay: SPR, immobilized FcγRs, soluble IgGs
T2 construct: The head is printed 'hFcγRII^F158'; also called huFcγRIIIA

hFcγRIIA R131 = biological target: T3, hFcγRIIA R131 (human, UniProt P12318 34-218, limits assumed); assay: SPR, immobilized FcγRs, soluble IgGs
T3 construct: R131 allotype as printed (131 is mature-protein numbering)
T3 sequence (looked up): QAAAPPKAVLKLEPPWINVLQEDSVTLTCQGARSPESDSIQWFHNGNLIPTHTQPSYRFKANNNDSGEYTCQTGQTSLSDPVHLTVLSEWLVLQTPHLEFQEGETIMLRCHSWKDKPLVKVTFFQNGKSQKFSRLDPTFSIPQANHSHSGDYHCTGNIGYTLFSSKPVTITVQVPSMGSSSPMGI

hFcγRIIB [3] = biological target: T4, hFcγRIIB (human, UniProt P31994 43-217, limits assumed); assay: SPR, immobilized FcγRs, soluble IgGs
T4 construct: also called CD32B; huFcγRIIB
T4 sequence (looked up): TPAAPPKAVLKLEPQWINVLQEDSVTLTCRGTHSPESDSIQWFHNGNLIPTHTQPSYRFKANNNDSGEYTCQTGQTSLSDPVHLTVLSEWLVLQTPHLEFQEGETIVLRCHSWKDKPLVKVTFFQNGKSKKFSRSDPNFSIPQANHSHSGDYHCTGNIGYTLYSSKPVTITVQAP

FcgR1 = biological target: T5, FcgR1 (human, UniProt P12314); assay: FcγR binding ELISA, plate-bound human FcγRI soluble ectodomain, serially diluted IgG, Δabsorbance 450 nm; panel FcgR1
T5 construct: soluble ectodomain; also called human FcγRI soluble ectodomain (ELISA); FcγRI
Procedure: as §1

[4] = biological target: T6, human FcγRIIIB soluble ectodomain (ELISA) (human, UniProt O75015 17-200, limits assumed); assay: FcγR binding ELISA, plate-bound human FcγRIIIB soluble ectodomain, serially diluted IgG, Δabsorbance 450 nm; panel Fcg3B
T6 construct: extracellular domain
Procedure: as §1

hFcγRIIB [5] = biological target: T4, hFcγRIIB; assay: FcγR binding ELISA, plate-bound human FcγRIIB soluble ectodomain, serially diluted IgG, Δabsorbance 450 nm; panel Fcg2B
Procedure: as §1

T2 sequence (P08637 17-208 limits assumed): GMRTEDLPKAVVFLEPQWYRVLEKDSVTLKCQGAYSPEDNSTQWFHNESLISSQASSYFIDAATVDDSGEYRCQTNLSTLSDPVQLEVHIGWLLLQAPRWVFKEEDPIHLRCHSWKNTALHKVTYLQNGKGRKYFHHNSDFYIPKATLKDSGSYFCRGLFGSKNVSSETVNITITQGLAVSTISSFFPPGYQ
T5 sequence (P12314 16-292 limits assumed): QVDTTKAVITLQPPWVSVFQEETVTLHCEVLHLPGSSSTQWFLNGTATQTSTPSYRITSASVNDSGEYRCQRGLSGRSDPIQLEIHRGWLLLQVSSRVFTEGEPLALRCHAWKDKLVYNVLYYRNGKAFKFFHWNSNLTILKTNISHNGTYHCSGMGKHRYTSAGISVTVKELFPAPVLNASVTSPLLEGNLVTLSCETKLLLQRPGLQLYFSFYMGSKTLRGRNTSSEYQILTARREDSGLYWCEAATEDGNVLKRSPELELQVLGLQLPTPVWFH
T1 sequence (P08637 17-208): as the sequence (P08637 17-208 limits assumed) above
T6 sequence (O75015 17-200 limits assumed): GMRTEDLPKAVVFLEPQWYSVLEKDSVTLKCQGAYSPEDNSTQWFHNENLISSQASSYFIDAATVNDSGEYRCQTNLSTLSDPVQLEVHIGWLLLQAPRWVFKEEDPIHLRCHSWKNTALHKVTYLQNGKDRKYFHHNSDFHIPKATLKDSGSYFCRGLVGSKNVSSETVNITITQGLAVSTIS

B1: Avelumab Afucosylated Fc variant (antibody, human IgG1, lambda)
heavy: not shown
light: QSALTQPASVSGSPGQSITISCTGTSSDVGGYNYVSWYQQHPGKAPKLMIYDVSNRPSGVSNRFSGSKSGNTASLTISGLQAEDEADYYCSSYTSSSTRVFGTGTKVTVLGQPKANPTVTLFPPSSEELQANKATLVCLISDFYPGAVTVAWKADGSPVKAGVETTKPSKQSNNKYAASSYLSLTPEQWKSHRSYSCQVTHEGSTVEKTVAPTECS
modifications: afucosylated Fc glycan (N297, EU); fucose content of about 28%
notes: also called non-fucosylated Fc glycan
- EC50 (read off the curve) [1]: ~2 µg/mL
- Fold (KD(IgG1)/KD(Fc variant)) [2]: 11.6 fold
- Kd [2]: 578 nM
- Fold (KD(IgG1)/KD(Fc variant)) (hFcγRIIA R131): 1 fold
- Kd (hFcγRIIA R131): 1160 nM
- Fold (KD(IgG1)/KD(Fc variant)) (hFcγRIIB [3]): 1.1 fold
- Kd (hFcγRIIB [3]): 2800 nM
- binding result (FcgR1): binds

B2: Avelumab IgG1 (wild type human IgG1) (antibody)
heavy: not shown
light: B1 light
notes: Made recombinantly in Expi293 cells
- Fold (KD(IgG1)/KD(Fc variant)) [2]: 1 fold
- Kd [2]: 6700 nM
- Fold (KD(IgG1)/KD(Fc variant)) (hFcγRIIA R131): 1 fold
- Kd (hFcγRIIA R131): 1160 nM
- Fold (KD(IgG1)/KD(Fc variant)) (hFcγRIIB [3]): 1 fold
- Kd (hFcγRIIB [3]): 3010 nM
- binding result (FcgR1): binds

B5: Avelumab ALIE (A330L/I332E) (antibody, human IgG1, lambda)
heavy: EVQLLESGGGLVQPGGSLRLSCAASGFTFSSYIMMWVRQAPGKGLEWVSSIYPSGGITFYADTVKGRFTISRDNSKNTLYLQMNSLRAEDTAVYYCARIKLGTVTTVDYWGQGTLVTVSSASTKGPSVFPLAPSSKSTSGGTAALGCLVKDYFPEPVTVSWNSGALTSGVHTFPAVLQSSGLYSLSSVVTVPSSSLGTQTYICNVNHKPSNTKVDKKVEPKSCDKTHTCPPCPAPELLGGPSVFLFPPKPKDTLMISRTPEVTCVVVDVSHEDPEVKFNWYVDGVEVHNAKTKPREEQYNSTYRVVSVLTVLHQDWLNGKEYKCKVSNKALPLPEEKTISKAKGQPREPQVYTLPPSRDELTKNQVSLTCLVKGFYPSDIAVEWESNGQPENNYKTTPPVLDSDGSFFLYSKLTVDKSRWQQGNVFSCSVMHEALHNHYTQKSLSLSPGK
light: B1 light
- Fold (KD(IgG1)/KD(Fc variant)) [2]: 5.4 fold
- Fold (KD(IgG1)/KD(Fc variant)) (hFcγRIIA R131): 1.2 fold
- Kd (hFcγRIIA R131): 950 nM
- Fold (KD(IgG1)/KD(Fc variant)) (hFcγRIIB [3]): 1.1 fold
- Kd (hFcγRIIB [3]): 2800 nM

B6: Avelumab N297A (FcγR-binding null IgG1) (antibody, name in EU numbering)
heavy: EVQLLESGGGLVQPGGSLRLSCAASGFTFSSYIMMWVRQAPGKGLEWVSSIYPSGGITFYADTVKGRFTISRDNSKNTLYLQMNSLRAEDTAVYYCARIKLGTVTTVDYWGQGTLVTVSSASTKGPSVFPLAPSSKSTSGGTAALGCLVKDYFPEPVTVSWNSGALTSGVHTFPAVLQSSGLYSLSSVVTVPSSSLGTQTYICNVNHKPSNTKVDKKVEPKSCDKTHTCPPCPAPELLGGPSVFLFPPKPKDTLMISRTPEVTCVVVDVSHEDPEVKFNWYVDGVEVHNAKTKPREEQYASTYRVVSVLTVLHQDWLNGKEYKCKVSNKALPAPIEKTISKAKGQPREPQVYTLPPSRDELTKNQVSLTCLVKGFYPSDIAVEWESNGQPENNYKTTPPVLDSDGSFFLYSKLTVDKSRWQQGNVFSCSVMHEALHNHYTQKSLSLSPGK
light: B1 light
notes: also called Fc-silent (N297A) variant
- binding result [4]: no binding (tested: log 2 (100 µg/ml))
- binding result (hFcγRIIB [5]): no binding (tested: log 2 (100 µg/ml))
- binding result [1]: no binding (tested: log 1.2 (about 16 µg/ml))
- binding result [2]: no binding
- binding result (hFcγRIIA R131): no binding
- binding result (FcgR1): binds

More lines, in order of falling Kd (hFcγRIIA R131), values ahead:

- Fold (KD(IgG1)/KD(Fc variant)) [2]: 1.7 fold
- Kd [2]: 3900 nM
- Fold (KD(IgG1)/KD(Fc variant)) (hFcγRIIA R131): 9.3 fold
- Kd (hFcγRIIA R131): 120 nM
- Fold (KD(IgG1)/KD(Fc variant)) (hFcγRIIB [3]): 0.7 fold
- Kd (hFcγRIIB [3]): 4380 nM
B3: Avelumab G236A (antibody, human IgG1, lambda)
heavy: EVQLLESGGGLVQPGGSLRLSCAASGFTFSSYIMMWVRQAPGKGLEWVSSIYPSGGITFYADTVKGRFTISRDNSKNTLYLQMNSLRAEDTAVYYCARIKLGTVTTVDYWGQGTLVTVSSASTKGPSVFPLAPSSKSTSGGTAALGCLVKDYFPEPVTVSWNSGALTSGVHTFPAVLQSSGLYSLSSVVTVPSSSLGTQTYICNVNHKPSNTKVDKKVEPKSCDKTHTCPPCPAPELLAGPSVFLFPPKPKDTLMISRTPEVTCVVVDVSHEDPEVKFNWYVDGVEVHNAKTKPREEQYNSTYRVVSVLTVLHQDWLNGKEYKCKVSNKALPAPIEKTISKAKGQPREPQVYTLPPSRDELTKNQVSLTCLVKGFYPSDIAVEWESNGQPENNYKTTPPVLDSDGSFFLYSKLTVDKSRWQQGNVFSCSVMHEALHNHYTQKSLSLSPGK
light: B1 light

- Fold (KD(IgG1)/KD(Fc variant)) [2]: 29.5 fold
- Kd [2]: 227 nM
- Fold (KD(IgG1)/KD(Fc variant)) (hFcγRIIA R131): 24.5 fold
- Kd (hFcγRIIA R131): 47 nM
- Fold (KD(IgG1)/KD(Fc variant)) (hFcγRIIB [3]): 14 fold
- Kd (hFcγRIIB [3]): 230 nM
B4: Avelumab GASDALIE (G236A/S239D/A330L/I332E) (antibody, human IgG1, lambda)
heavy: EVQLLESGGGLVQPGGSLRLSCAASGFTFSSYIMMWVRQAPGKGLEWVSSIYPSGGITFYADTVKGRFTISRDNSKNTLYLQMNSLRAEDTAVYYCARIKLGTVTTVDYWGQGTLVTVSSASTKGPSVFPLAPSSKSTSGGTAALGCLVKDYFPEPVTVSWNSGALTSGVHTFPAVLQSSGLYSLSSVVTVPSSSLGTQTYICNVNHKPSNTKVDKKVEPKSCDKTHTCPPCPAPELLAGPDVFLFPPKPKDTLMISRTPEVTCVVVDVSHEDPEVKFNWYVDGVEVHNAKTKPREEQYNSTYRVVSVLTVLHQDWLNGKEYKCKVSNKALPLPEEKTISKAKGQPREPQVYTLPPSRDELTKNQVSLTCLVKGFYPSDIAVEWESNGQPENNYKTTPPVLDSDGSFFLYSKLTVDKSRWQQGNVFSCSVMHEALHNHYTQKSLSLSPGK
light: B1 light
notes: also called GASDLIE
